According to publication PMC9468336, “The choanoflagellate pore-forming lectin SaroL-1 punches holes in cancer cells by targeting the tumor-related glycosphingolipid Gb3” (Communications Biology, 2022):
“And” between values parts separate entries of the source, which are not always exact repeats. Identical values can stand only once.

Key:
[1] = Dextran influx into GUVs (pore formation); type: biochemical; settings: for GUVs filled with dextran-AF488, average %: 3 kDa dextran; for GUVs filled with 70 kDa FITC-dextran, average %: 70 kDa dextran
Text: (§1) GUVs were composed of 1,2-dioleoyl-sn-glycero-3-phosphocholine (DOPC), cholesterol (both AvantiPolar Lipids, United States), Atto 647 N 1,2-dioleoyl-sn-glycero-3-phosphoethanolamine (DOPE; Sigma-Aldrich), and one of the following glycolipids at a molar ratio of 64.7:30:0.3:5. The glycolipids are globotriaosylceramide (Gb3, Matreya), FSL-Gb3 (Function-Spacer-Lipid with globotriaosyl saccharide), and corresponding FSL-isoGb3 (Function-Spacer-Lipid with iso-globotriaosyl saccharide) synthetized as previously described[84],[85], FSL-A(tri) (Function-Spacer-Lipid with blood group A trisaccharide; Sigma-Aldrich), FSL-B(tri) (Function-Spacer-Lipid with blood group B trisaccharide; Sigma-Aldrich) or lactosylceramide (LC, Sigma-Aldrich).
GUVs were prepared by the electroformation method as earlier described. Briefly, lipids dissolved in chloroform of a total concentration of 0.5 mg/mL were spread on indium tin oxid-covered (ITO) glass slides and dried in a vacuum for at least 1 h or overnight. Two ITO slides were assembled to create a chamber filled with sucrose solution adapted to the osmolarity of the imaging buffer of choice, either HBSS (live-cell imaging) or PBS (GUVs only imaging). Then, an alternating electrical field with a field strength of 1 V/mm was implemented for 2.5 h at RT. Later we observed the GUVs in chambers manually built as described.
Dextran Alexa Fluor 488 (Dextran-AF488) with a MW of 3 kDa (Thermo Fischer) or 70 kDa FITC-dextran (Sigma-Aldrich) was added to the observation chamber (0.02 mg/mL) in PBS buffer together with 200 nM SaroL-1. Then wt Gb3-containing GUVs (40 µL) were added for imaging and monitoring of pore-formation. Dextran-AF488 was present in the GUVs’ surrounding solution. For PNPG treatment, 200 nM of SaroL-1 was pre-incubated with 10 mM PNPG dissolved in DMSO for 15 min at RT in the observation chamber. Directly after, dextran-AF488 (0.02 mg/mL) and 40 µL wt Gb3-containing GUVs were added to the observation chamber and monitored using confocal microscopy.

H1299 cells [2] = test: Cell proliferation (MTT) assay; type: cell-based, human
Procedure: (§2) The human lung epithelial cell line H1299 (American Type Culture Collection, CRL-5803) was cultured in a complete medium, consisting of Roswell Park Memorial Institute (RPMI) medium supplemented with 10% fetal calf serum (FCS) and 2 mM L-glutamine at 37 °C and 5% CO2. Cells were stimulated with different concentrations of SaroL-1 in a complete medium for indicated time points.
To investigate the cytotoxic effect of SaroL-1 on human cells, H1299 cells were treated with increasing concentrations of SaroL-1 for 24 h in a standard MTT assay. For the depletion of Gb3 from the plasma membrane, H1299 cells were treated with 2 µM PPMP for 72 h before the experiment. 3.5 × 10^4 cells per well were transferred to a 96-well plate with a U-bottom. The cells were centrifuged at 1600 × g for 3 min at RT. The cell pellet was re-suspended in 100 μL of variously concentrated protein solutions (3, 14, 27, 68, 135, 270, 680, 1360 nM) and transferred to a 96-well flat-bottomed plate. The cells were incubated for 24 h at 37 °C. Subsequently, 10 μL of MTT labelling solution (MTT Cell Proliferation Kit, Roche) was added to each well, and the cells were incubated for 4 h at 37 °C. Then, 100 μL of the solubilisation reagent was added to each well, and the plate was incubated at 37 °C overnight. The next day, the absorbance of the samples was measured at 550 nm using a BioTek microplate reader. To assess SaroL-1 cytotoxicity in the presence of the soluble sugar PNPG, 3.5 × 10^4 cells per well were transferred to a 96-well plate with a U-bottom. Variously concentrated protein solutions (3, 14, 27, 68, 135, 270, 680, 1360 nM) were preincubated with 10 mM PNPG dissolved in complete medium, for 15 min at RT. The cells were centrifuged at 1600 × g for 3 min at RT. Next, the cell pellet was re-suspended in 100 μL protein solution and transferred to a 96-well flat-bottomed plate. The cells were incubated for 24 h at 37 °C, and the MTT assay was performed as described above. The data was further analyzed using GraphPad Prism software.

[3] = Confocal imaging of SaroL-1 binding to lactosylceramide GUVs; settings: 200 nM labelled SaroL-1, Lac-cer GUVs
Text: as §1
(§3) GUVs were prepared by the electroformation method as earlier described. Briefly, lipids dissolved in chloroform of a total concentration of 0.5 mg/mL were spread on indium tin oxid-covered (ITO) glass slides and dried in a vacuum for at least 1 h or overnight. […]
(§4) Samples of GUVs and SaroL-1 were imaged using a confocal fluorescence microscope (Nikon Eclipse Ti-E inverted microscope equipped with Nikon A1R confocal laser scanning system, 60x oil immersion objective, NA = 1.49 and four laser lines: 405 nm, 488 nm, 561 nm, and 640 nm). […]

[4] = Confocal imaging of SaroL-1 binding to DOPC GUVs without glycolipids; settings: 200 nM SaroL-1, DOPC GUVs without glycolipids (negative control)
Text: as §1, §3, §4

H1299 cells [5] = test: Cell detachment assay; type: cell-based, human
Procedure: as §2
To determine the role of SaroL-1 in cell detachment, 3 × 10^5 cells per well were counted and allowed to adhere overnight in a 6-well plate. The next day, cells were incubated for 2, 4, or 8 h with two different concentrations of SaroL-1 (270 nM and 1.36 µM) diluted in a complete medium compared to a negative control. As a positive control, cells were incubated with trypsin-EDTA for 10 min at 37 °C, to induce 100% cell detachment. The number of cells in suspension at the indicated time points was quantified by analyzing the supernatant with the CytoSmart Corning cell counter. Cells were resuspended with Trypan Blue solution (Sigma-Aldrich) in a ratio 1:1 for the quantification of cellular death upon detachment.

[6] = 200 nM SaroL-1, 30 min, listed as SaroL1
[7] = 200 nM SaroL-1, 120 min, listed as SaroL1

## O=[N+]([O-])c1ccc(O[C@H]2O[C@H](CO)[C@H](O)[C@H](O)[C@H]2O)cc1 [PNPG, p-nitrophenyl-α-D-galactopyranoside]
[1]; 200 nM SaroL-1 pre-treated with 10 mM PNPG, 0 min
  GUVs filled with dextran-AF488, average %: 0%
[1]; 200 nM SaroL-1 pre-treated with 10 mM PNPG, 60 min
  GUVs filled with dextran-AF488, average %: 0.4205%
[1]; 200 nM SaroL-1 pre-treated with 10 mM PNPG, 120 min
  GUVs filled with dextran-AF488, average %: 4% and 4.251%
H1299 cells [2]; SaroL-1 (3-1358 nM) pre-incubated with 10 mM PNPG, 24 h
  reduction of SaroL-1-induced cell death: > 90%

B1: SaroL-1: Recombinant pore-forming lectin of Salpingoeca rosetta (UniProt F2UID9, 329 amino acids) with β-trefoil and aerolysin-like domains (protein)
chain: MSSTFEPATDSPLPVPGVQYFLQHVQSGKYVHPHGGSDMPGNDTALVLHHGFDEKRDALRWVFVNDAENKHQLKHYSSGKFVHPKGGKVGKEATLVVHSSPGRPETMIEMVQEDGRTYLRHTDSDYYVHPHGGSPNPGDNTRLVYYSGYRPSLAFLAIPAETLFVDRIEIHQAQALESINTITSLSDEHRNDTDQPVQTSISVALEESLQDSAQLSFERCFGLKVGSEFEVGLPLVGKTKVSVQFSGSWKSSTIKGEVRTSAVKVQINEHVTIPPGKCVQIRIDTRRCTKTAPATMYLRTASGIEVQRETTVTSTYHYDQEVHVVPVTN
modifications: left off: His6, N-terminal, state not stated
notes: Recombinant pore-forming lectin of Salpingoeca rosetta (UniProt F2UID9, 329 amino acids) with β-trefoil and aerolysin-like domains
[3]
  binding to GUVs: very weak binding
[4]
  binding to GUVs: No binding
[1]; 200 nM SaroL-1, 0 min
  GUVs filled with dextran-AF488, average %: 11.106%
  GUVs filled with 70 kDa FITC-dextran, average %: 4.422%
[1]; 200 nM SaroL-1, 30 min
  GUVs filled with dextran-AF488, average %: 45%
  GUVs filled with 70 kDa FITC-dextran, average %: 17%
[1]; [6]
  GUVs filled with dextran-AF488, average %: 45.1678%
  GUVs filled with 70 kDa FITC-dextran, average %: 16.9551%
[1]; 200 nM SaroL-1, 60 min
  GUVs filled with dextran-AF488, average %: 57.8615%
  GUVs filled with 70 kDa FITC-dextran, average %: 29%
[1]; 200 nM SaroL-1, 120 min
  GUVs filled with dextran-AF488, average %: 69%
  GUVs filled with 70 kDa FITC-dextran, average %: 29%
[1]; [7]
  GUVs filled with dextran-AF488, average %: 69.3211%
  GUVs filled with 70 kDa FITC-dextran, average %: 29.7507%
[1]; 200 nM SaroL-1, 60 min, listed as SaroL1
  GUVs filled with 70 kDa FITC-dextran, average %: 28.4248%
H1299 cells [2]; 24 h, 1.36 µM SaroL-1
  reduction of cell viability: ~ 87%
H1299 cells [2]; 24 h, FCS-containing medium, read-out: concentration at which the percentage of viable cells decreased by half
  IC50: 271 nM
H1299 cells [2]; H1299 pre-treated with PPMP for 72 h, 24 h with SaroL-1
  cytotoxicity on Gb3-depleted cells (in words): remarkably reduced
H1299 cells [5]; 271 nM SaroL-1
  time point at which cell detachment is promoted: 8 h
H1299 cells [5]; compared to PBS-treated cells
  cell rounding and detachment (in words): dose-dependent rounding and detachment of cells
H1299 cells [5]; highest concentration, 1.36 µM SaroL-1
  time point at which detachment of cells is visible: 2 h
